Results as given in article PMC6334735.

Molecular target: TrkA
Assay: in situ PLA, anti-Trk plus anti-total IRS1
Details: sites Y608

Sequence of IRS1 (P35570 whole entry, looked up, change not shown): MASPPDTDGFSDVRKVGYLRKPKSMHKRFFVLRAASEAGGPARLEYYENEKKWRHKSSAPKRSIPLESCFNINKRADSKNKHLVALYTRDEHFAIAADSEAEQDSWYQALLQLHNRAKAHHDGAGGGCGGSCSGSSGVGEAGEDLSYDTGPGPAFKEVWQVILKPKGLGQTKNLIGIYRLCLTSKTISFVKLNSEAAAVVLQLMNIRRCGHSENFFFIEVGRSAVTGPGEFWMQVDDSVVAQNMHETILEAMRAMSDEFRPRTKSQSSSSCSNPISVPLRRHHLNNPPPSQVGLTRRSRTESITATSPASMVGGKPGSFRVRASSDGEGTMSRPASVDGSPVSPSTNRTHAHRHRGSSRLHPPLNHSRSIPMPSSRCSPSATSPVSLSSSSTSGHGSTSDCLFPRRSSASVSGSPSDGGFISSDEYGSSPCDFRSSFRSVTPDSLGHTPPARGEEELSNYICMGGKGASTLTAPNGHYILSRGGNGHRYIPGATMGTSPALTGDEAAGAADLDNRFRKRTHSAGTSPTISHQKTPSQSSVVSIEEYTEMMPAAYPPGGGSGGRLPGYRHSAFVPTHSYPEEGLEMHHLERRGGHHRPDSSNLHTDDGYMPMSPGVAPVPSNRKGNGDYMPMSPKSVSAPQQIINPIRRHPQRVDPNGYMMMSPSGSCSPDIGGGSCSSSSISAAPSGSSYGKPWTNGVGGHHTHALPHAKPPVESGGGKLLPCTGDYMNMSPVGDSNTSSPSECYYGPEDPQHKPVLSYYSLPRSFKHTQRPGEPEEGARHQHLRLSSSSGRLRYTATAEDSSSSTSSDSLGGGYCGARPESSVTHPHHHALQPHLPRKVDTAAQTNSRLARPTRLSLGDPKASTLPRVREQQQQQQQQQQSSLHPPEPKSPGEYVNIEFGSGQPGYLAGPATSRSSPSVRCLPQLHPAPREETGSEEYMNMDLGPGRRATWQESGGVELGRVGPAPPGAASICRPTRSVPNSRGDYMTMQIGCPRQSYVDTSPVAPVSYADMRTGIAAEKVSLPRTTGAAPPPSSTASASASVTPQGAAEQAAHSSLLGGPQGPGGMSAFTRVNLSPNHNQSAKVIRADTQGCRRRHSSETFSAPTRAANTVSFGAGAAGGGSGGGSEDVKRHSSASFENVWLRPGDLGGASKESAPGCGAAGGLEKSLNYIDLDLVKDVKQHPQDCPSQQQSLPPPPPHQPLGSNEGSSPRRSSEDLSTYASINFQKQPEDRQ

Substance	other: PLA dots per neuron (reference: NGF-treated neurons)	other: PLA dots per neuron (reference: untreated neurons (CTR))
IRS1 (from UniProt P35570) NGF after NT157 preincubation (10 µM, 2 h)	weaker; reference 121.5 ± 16.4	
IRS1 (from UniProt P35570) NGF 100 ng/ml, 30 min		stronger; reference 50.6 ± 5.9
